Source: patent publication US20090155251A1 (published 2009)
Values belong to the binder of their own block, whether it stands above or below them.

Legend:
[1] = molecular target: T1, Mouse EphB4/Fc (R&D Systems) (mouse, UniProt P54761 16-539, limits assumed); assay: immunofluorescence on frozen KS biopsy sections, 5 ug/ml EphB4/Fc
T1 construct: Bought reagent; also called EphB4/Fc fusion protein; not shown: Fc part, detected with anti-human Fc/IgG-FITC
T1 sequence (looked up): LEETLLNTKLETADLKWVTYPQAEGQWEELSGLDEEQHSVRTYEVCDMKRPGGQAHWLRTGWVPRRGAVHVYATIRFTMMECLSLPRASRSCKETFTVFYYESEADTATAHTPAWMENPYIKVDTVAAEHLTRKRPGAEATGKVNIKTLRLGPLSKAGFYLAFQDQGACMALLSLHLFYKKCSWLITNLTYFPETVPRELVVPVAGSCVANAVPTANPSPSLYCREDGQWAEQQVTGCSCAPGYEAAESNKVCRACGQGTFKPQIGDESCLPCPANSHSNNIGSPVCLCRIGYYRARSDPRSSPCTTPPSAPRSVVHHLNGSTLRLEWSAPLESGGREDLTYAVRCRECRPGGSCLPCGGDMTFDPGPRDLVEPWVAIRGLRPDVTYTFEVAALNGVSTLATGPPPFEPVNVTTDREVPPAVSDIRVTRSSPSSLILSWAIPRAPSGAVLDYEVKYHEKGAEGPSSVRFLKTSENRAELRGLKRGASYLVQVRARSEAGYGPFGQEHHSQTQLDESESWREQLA
Description: Immunofluorescence detection of EphrinB2 with EPHB4-Fc was done as follows. Frozen sections fixed in 4% paraformaldehyde and blocked with 20% FBS were incubated with 5 μg/ml EphB4/Fc (R&D Systems) for 1 h at RT. Sections were then incubated with 10 μg/ml rabbit anti-human IgG-FITC in PBS (Jackson ImmunoResearch Laboratories West Grove, Pa.) at RT for 1 hour. Nuclei were counterstained with DAPI and sections mounted as above. Human Fc (Jackson ImmunoResearch) was used as the negative control.

[2] = molecular target: T2, B4-GC (EphB4 globular domain + Cys-rich domain, C-terminal 6xHis) (human, UniProt P54760 16-326); assay: Ephrin B2-AP binding to B4 proteins immobilized on Ni resin or nitrocellulose membrane
T2 construct: Printed mature EphB4 part counts 311 residues, the text says 1-312; also called B4EC-GC
T2 sequence: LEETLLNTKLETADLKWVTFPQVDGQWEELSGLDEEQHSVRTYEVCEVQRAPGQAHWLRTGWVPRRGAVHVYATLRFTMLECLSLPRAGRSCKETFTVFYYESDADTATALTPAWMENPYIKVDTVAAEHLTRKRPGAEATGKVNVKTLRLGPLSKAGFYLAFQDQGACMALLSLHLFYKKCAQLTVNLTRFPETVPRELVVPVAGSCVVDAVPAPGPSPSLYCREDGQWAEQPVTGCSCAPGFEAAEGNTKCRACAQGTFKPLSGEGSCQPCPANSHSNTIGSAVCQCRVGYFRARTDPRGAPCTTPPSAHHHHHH
Description: (§1) To confirm ability of the purified recombinant proteins to bind Ephrin B2, they were tested in an in vitro binding assay. As expected, GC, GCF1 and GCF2, but not CF2 are binding the cognate ligand Ephrin B2 as confirmed by interaction between Ephrin B2—alkaline phosphatase (Ephrin B2-AP) fusion protein with the B4 proteins immobilized on Ni²⁺-resin or on nitrocellulose membrane (FIG. 17).
(§2) To test ligand binding properties of the proteins, 10 μl of Ni-NTA-Agarose (Qiagen) were incubated in microcentrifuge tubes with 10-500 ng sample of a B4-ECD protein diluted in 0.5 ml of binding buffer BB (20 mM Tris-HCl, 0.15 M NaCl, 0.1% bovine serum albumin, pH 8). After incubation for 30 min on shaking platform, Ni-NTA beads were washed twice with 1.4 ml of BB, followed by addition of B2-AP fusion protein at concentration of 50 nM. Binding was performed for 30 min on a shaking platform. Tubes were centrifuged and washed once with 1.4 ml of BB. Amount of precipitated AP was measured colorimetrically at 420 nm after application of p-nitrophenyl phosphate (PNPP) and incubation for 5-30 min.

[3] = molecular target: T3, B4-CF2 (EphB4 extracellular domain with deleted globular domain: Cys-rich and two FNIII domains, V5 and 6xHis … (human, UniProt P54760 16-537)); assay: as above
T3 sequence: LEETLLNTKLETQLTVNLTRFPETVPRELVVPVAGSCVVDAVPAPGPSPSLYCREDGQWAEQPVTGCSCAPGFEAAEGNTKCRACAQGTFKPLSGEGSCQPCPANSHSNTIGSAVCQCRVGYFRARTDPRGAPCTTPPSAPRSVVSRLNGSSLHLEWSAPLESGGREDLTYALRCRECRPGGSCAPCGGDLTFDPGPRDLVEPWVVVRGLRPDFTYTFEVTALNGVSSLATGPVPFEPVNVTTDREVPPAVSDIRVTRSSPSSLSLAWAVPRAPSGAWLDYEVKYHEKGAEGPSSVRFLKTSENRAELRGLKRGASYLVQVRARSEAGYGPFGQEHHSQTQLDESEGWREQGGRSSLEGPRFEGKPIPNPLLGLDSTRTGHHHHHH
Description: as §1, §2

[4] = molecular target: T4, B4-GCF2 (recombinant soluble EphB4 extracellular domain: globular, Cys-rich and two FNIII domains, C-terminal … (human, UniProt P54760 16-537)); assay: as above
T4 construct: Expressed in HEK293T, glycosylated
T4 sequence: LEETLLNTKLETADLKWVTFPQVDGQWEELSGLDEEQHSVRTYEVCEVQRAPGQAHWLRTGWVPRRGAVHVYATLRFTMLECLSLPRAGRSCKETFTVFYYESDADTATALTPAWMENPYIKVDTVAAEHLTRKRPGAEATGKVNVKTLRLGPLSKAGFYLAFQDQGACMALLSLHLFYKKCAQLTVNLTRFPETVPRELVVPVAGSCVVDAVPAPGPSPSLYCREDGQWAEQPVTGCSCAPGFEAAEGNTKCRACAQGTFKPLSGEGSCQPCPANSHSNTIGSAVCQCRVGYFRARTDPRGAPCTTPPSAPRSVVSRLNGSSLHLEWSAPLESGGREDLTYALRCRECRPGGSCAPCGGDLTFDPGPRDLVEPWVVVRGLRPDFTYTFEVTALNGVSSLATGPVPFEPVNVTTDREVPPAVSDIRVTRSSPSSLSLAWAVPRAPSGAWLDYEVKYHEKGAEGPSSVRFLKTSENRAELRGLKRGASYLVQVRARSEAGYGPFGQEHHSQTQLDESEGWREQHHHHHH
Description: as §1, §2

[5] = molecular target: T5, B4EC-NT (soluble EphB4 extracellular domain without epitope or purification tags) (human, UniProt P54760 16-539); assay: B2EC-AP binding and competition assays on conditioned media of stable cell lines
T5 construct: extracellular domain; also called EphB4ECnt; B4ECv3NT
T5 sequence (looked up): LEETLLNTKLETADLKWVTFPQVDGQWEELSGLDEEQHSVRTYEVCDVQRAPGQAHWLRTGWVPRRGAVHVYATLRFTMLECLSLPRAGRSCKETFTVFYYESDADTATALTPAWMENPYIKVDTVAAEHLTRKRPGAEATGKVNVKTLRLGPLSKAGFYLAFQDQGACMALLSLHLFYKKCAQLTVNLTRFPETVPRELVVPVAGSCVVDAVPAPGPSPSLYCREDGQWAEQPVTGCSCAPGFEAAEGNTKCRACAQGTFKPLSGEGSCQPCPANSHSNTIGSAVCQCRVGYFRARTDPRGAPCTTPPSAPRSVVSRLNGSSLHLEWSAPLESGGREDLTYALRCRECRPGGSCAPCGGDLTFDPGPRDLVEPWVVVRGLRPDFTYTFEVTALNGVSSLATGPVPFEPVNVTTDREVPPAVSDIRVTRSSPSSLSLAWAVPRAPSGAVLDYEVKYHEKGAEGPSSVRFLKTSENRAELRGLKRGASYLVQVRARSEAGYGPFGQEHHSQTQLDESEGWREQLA

[6] = molecular target: T6, B4ECv3-FC (EphB4 extracellular domain fused to human IgG1 Fc) (human, UniProt P54760 16-539); assay: biochemical assays: Protein A-agarose and nitrocellulose binding of B2EC-AP; inhibition assays (FIGS. 6-7)
T6 construct: extracellular domain; also called B4EC-FC; not shown: Fc portion of human IgG1 (pIG vector)
T6 sequence (looked up): T5 sequence (looked up)
Description: Protein A-agarose based assay. 10 μl of Protein A-agarose were incubated in Eppendorf tubes with 50 μl of indicated amount of B4EC-FC diluted in binding buffer BB (20 mM Tris-HCl, 0.15 M NaCl, 0.1% BSA pH 8). After incubation for 30 min on shaking platform, Protein AAagarose beads were washed twice with 1.4 ml of BB, followed by application of 50 μl of B2ECAP reagent at the final concentration of 50 nM. Binding was performed for 30 min on shaking platform, and then tubes were centrifuged and washed once with 1.4 ml of BB. Colorimetric reaction of precipitated AP was measured after application of PNPP (FIG. 6).
Nitrocellulose based assay. B4EC-FC was serially diluted in 20 mM Tris-HCl, 0.15 M NaCl, 50 μg/ml BSA, pH 8. 2 μl of each fraction were applied onto nitrocellulose strip and spots were dried out for 3 min. Nitrocellulose strip was blocked with 5% non-fat milk for 30 min, followed by incubation with 5 nM B2EC-AP reagent. After 45 min incubation for binding, nitrocellulose was washed twice with 20 mM Tris-HCl, 0.15 M NaCl, 50 μg/ml BSA, pH 8 and color was developed by application of alkaline phosphatase substrate Sigma Fast (Sigma).

[7] = molecular target: T7, B4ECv3 (soluble EphB4 extracellular domain with C-terminal V5 epitope tag and 6xHis tag) (human, UniProt P54760 16-537); assay: biochemical assays: Ni-NTA bead binding of B2-AP; inhibition in solution and cell based
T7 construct: also called EphB4ECv3; GCF2 (v.3)
T7 sequence: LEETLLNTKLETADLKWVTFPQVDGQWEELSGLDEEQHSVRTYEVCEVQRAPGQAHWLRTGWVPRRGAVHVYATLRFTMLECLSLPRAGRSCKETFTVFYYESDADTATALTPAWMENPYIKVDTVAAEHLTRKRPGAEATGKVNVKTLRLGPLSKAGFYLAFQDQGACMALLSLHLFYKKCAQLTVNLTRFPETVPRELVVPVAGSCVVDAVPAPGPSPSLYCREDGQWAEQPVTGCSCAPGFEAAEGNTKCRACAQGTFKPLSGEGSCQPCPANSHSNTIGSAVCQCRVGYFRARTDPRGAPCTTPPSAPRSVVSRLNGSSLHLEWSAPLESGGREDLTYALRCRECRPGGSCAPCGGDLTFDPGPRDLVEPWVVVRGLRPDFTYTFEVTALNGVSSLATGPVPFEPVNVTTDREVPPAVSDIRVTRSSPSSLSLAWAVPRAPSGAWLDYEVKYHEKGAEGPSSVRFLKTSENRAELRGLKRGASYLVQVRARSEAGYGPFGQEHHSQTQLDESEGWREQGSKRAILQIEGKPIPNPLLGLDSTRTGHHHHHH
Description: 10 μl of Ni-NTA-Agarose were incubated in microcentrifuge tubes with 50 μl of indicated amount of B4ECv3 diluted in binding buffer BB (20 mM Tris-HCl, 0.15 M NaCl, 0.1% bovine serum albumin pH 8) After incubation for 30 min on shaking platform, Ni-NTA beads were washed twice with 1.4 ml of BB, followed by application of 50 μl of B2-AP in the final concentration of 50 nM. Binding was performed for 30 min on shaking platform, and then tubes were centrifuged and washed one time with 1.4 ml of BB. Amount of precipitated AP was measured colorimetrically after application of PNPP.
Inhibition in solution. Different amounts of B4ECv3 diluted in 50 μl of BB were pre-incubated with 50 μl of 5 nM B2EC-AP reagent (protein fusion of Ephrin B2 ectodomain with placental alkaline phosphatase). After incubation for 1 h, unbound B2EC-AP was precipitated with 5,000 HEK293 cells expressing membrane-associated full-length EphB4 for 20 min. Binding reaction was stopped by dilution with 1.2 ml of BB, followed by centrifugation for 10 min. Supernatants were discarded and alkaline phosphatase activities associated with collected cells were measured by adding para-nitrophenyl phosphate (PNPP) substrate.
Cell based inhibition. B4ECv3 was serially diluted in 20 mM Tris-HCl, 0.15 M NaCl, 0.1% BSA, pH 8 and mixed with 5,000 HEK293 cells expressing membrane-associated full-length Ephrin B2. […]

binding result [1]: binds
B1: ephrin B2 on tumor cells of human Kaposi's sarcoma biopsy sections (ligand, UniProt P52799 28-333, looked up)
chain: IVLEPIYWNSSNSKFLPGQGLVLYPQIGDKLDIICPKVDSKTVGQYEYYKVYMVDKDQADRCTIKKENTPLLNCAKPDQDIKFTIKFQEFSPNLWGLEFQKNKDYYIISTSNGSLEGLDNQEGGVCQTRAMKILMKVGQDASSAGSTRNKDPTRRPELEAGTNGRSSTTSPFVKPNPGSSTDGNSAGHSGNNILGSEVALFAGIASGCIIFIVIIITLVVLLLKYRRRHRKHSPQHTTTLSLSTLATPKRSGNNNGSEPSDIIIPLRTADSVFCPHYEKVSGDYGHPVYIVQEMPPQSPANIYYKV
notes: whole, on cells

binding result [2]: binds
binding result [4]: binds
binding result [5]: binds
binding result [6]: binds
binding result [7]: binds
B2: Ephrin B2-alkaline phosphatase (Ephrin B2-AP) fusion protein: Ephrin B2 ectodomain fused with placental alkaline phosphatase (ligand, human, UniProt P52799 28-229, looked up)
chain: IVLEPIYWNSSNSKFLPGQGLVLYPQIGDKLDIICPKVDSKTVGQYEYYKVYMVDKDQADRCTIKKENTPLLNCAKPDQDIKFTIKFQEFSPNLWGLEFQKNKDYYIISTSNGSLEGLDNQEGGVCQTRAMKILMKVGQDASSAGSTRNKDPTRRPELEAGTNGRSSTTSPFVKPNPGSSTDGNSAGHSGNNILGSEVALFA
notes: extracellular domain; Secreted reagent; also called B2EC-AP; B2ECAP; not shown: placental alkaline phosphatase of vector pAPTag2 (GenHunter)
binding result [3]: no binding (tested: 50 nM B2-AP; 10-500 ng B4-ECD protein)
